Data reported in US9725702B2, “Laccase from ganoderma lucidum capable of enhancing enzymatic degradation of lignocellulolytic biomass” (DANMARKS TEKNISKE UNIVERSITET, priority 2012, dated 2017).

How the values were obtained:
Format in all cases: biochemical
[1] = Laccase-cellulase catalyzed hydrolysis of pretreated biomass, glucose release; settings: with cellulase 1 or 2, pH 5.1, 50° C., 30 hour
Method: FIG. 13. A graphical comparison of glucose released over time during hydrolysis of STEX-SCB at pH 5.1 and 50° C. by each of commercial enzyme preparations Cellulase 1 (CC2) [A]; or Cellulase 2 [B], either alone, or in combination with a laccase enzyme; the tested laccases being respectively LacGL1 and GLlac1 (LacJooSS; Q9HG17) derived from G. lucidum; and laccases derived from Agaricus bisporus (Sigma 40452), Pleurotus ostreatus (Sigma 75117) and, Trametes versicolor (Sigma 51639).
The commercial fungal laccases were purchased as lyophilized protein samples from Sigma Aldrich. A solution of each of the above 5 laccases was prepared in a citric buffer containing 20% of glycerol (pH 5.1, 100 mM).
Two different commercially available cellulase enzyme preparations used in the comparative study were “Cellulase 1” and “Cellulase 2”, which were tested in combination with each of the laccases listed above.
The three different types of pretreated biomass used in the comparative study were sugarcane bagasse, barley straw and wheat straw. The source and pre-treatment of the sugarcane bagasse by steam explosion was as set out in Example 9. […] The composition of the dry and the pretreated biomass were determined according to the US National Renewable Energy Laboratory (NREL) procedures (Sluiter et al, 2010).
The laccase-cellulase catalyzed hydrolysis of the pretreated biomass samples to release glucose was performed as follows: Hydrolysis of 5% (w/v) samples of pretreated sugarcane bagasse, barley straw, and wheat straw biomass were assayed using an Enzyme/Substrate (E/S) ratio of 0.064% w/w for laccases and of 0.4% w/w for each commercial cellulase preparation in each hydrolysis reaction. The E/S dosage was based on the total protein concentration used, as determined using Pierce BCA (BiCinchoninic Acid) protein assay kit microplate procedure according to manufacturer's instruction (Thermo Fisher Scientific, Rockford, US). […]
Laccase and cellulase-mediated hydrolysis of the 3 biomass forms, measured as glucose release, are shown graphically in FIGS. 13, 14 and 15. […]

[2] = Substrate specificity of laccase (relative rate of product formation)
Method: (§1) The laccase activity was measured based on a modified method of Ters et al. (2009). The laccase activity was defined as the amount of the enzyme required to oxidise 1 μmol of ABTS per minute at 25° C., and pH 4.7. The assay mixture contained: 0.1 M citrate-phosphate buffer (255 μL, pH 4.7), ABTS (5 μL, 4 mM (ABTS stock solution)), and pre-diluted laccase (5 μL) that ensured the linear range of Michaelis-Menten kinetics. The oxidation of ABTS was monitored at 420 nm (ε420=36800 M^−1cm^−1) for 2 min. in an Infinite 200 microtiter plate reader (Tecan, Salzburg, Austria). Laccase activity assays on the substrates: hydroquinone (248 nm), 2.6-dimethoxyphenol (470 nm), and guaiacol (436 nm) was done similarly with the substrate concentration as described in Table 2 using the following extinction coefficient values: 17.542 M^−1cm^−1, 35.645 M^−1cm^−1, and 6.400 M^−1cm^−1, respectively (Minussi et al. 2007). The data collection was monitored by the program Tecan i-control version 1.5.14.0 (Tecan, Salzburg, Austria). The calculated laccase activity was corrected by the absorbance of a control sample which contained: 0.1 M citrate-phosphate buffer (255 μL, pH 4.7), ABTS (5 μL, 4 mM), and 5 μL of distilled water instead of the enzyme. All determinations of the laccase activity were performed in duplicates, with an average sample standard deviation less than 5%.
LacGL1 laccase was able to oxidize both ABTS and other phenolic compounds (Table 5) such as: hydroquinone, guaiacol, and 2.6-dimethoxyphenol, however in a slower rate than for ABTS.

[3] = Laccase activity assay with ABTS; influence of pH and temperature
From the text: FIG. 8. A surface response plot of the relative activity (U/mL) of the LacGL1 laccase expressed in Pichia pastoris as a function of pH and temperature. The effect of the pH and temperature on the LacGL1 laccase activity, expressed from P. pastoris, was modeled via randomized, full factorial, statistically designed experiment—MODDE program version 7.0.0.1 (Umetrics, Umeå, Sweden). The statistical design consisted of 12 experiments, including a triplicate repetition at the center point (pH 5 and 40° C.), using ABTS as a substrate. The influence of the temperature and pH was monitored between 25-55° C. and pH 4-6 (for 0.1 M citrate-phosphate buffer), respectively. The mixture with the ABTS and buffer at the defined pH value was incubated for 5 min. in a thermocycler set to a desired temperature and afterwards added to a previously pre-diluted enzyme in a microtiter plate which was incubated for 1 min. in a microtiter plate reader set to a desired temperature. After mixing the substrate and buffer with the enzyme, the initial rate of the product formation was measured as described above. The volumes and concentrations of enzyme, substrate, and buffer were identical as for the laccase activity assay.
as §1, with “All determinations of the laccase activity were performed in duplicates, with an average sample standard deviation less than 5%.” left out
The effect of the pH and temperature on the LacGL1 laccase activity was determined with a statistically designed, randomized, full factorial experiment as described in FIG. 8. The relative laccase activity was calculated based on the LacGL1 activity at pH 4.7 and 25° C. […]

B1: LacGL1: Fungal laccase from Ganoderma lucidum CBS229.93 (SEQ ID NO: 5/9), recombinantly expressed in Pichia pastoris X-33 (protein, listed as Ganoderma lucidum)
chain: GIGPKTDLTISNADVAPDGYTRAAVVVNGVFPAPLITGNKGDRFQLNVIDQMTNHTMLKSTSIHWHGFFQKGTNWADGPAFINQCPISSGHSFLYDFQVPDQAGTFWYHSHLSTQYCDGLRGPFVVYDPKDPLKKLYDIDDDSTVITLTDWYHVAARLGPRFPLGSDSTLINGLGRSTTNVTADLAVINVTQGKRYRFRLVSLSCDPNYTFSIDDHNMTVIEADGIETQPVTVNAIQIFSAQRYSFVLTANQTIDNYWIRANPNFGNVGFTDGINSAILRYAGADPVEPTTSQQTTQNLLNEVDLHPFVPKRTPGQPTQGGVDTAINMVFNFNGSNFFINNASFVPPTVPVLLQILSGAQAAQDLLPSGSVYTLPVNKSIELTFPATANAPGAPHPFHLHGHAFAVVRSAGSTVYNYDNPVWRDVVSTGTPAAGDNVTIRFQTDNPGPWFLHCHIDFHLEAGFAVVFAEDPTDTSLANPVPKAWSDLCPTYDALSVDDQ
modifications: mat_peptide (1)..(499) Mature LacGL1 laccase (minus signal peptide)
glucose release compared to GLlac1 [1]: the same
glucose release compared to the other tested laccases ([1]; p<0.05): significantly enhanced
Laccase relative rate of product formation ([2]; substrate 2.6-Dimethoxyphenol 1 mM): 61%
Laccase relative rate of product formation ([2]; substrate ABTS 1 mM): 100%
Laccase relative rate of product formation ([2]; substrate Guaiacol 1 mM): 66%
Laccase relative rate of product formation ([2]; substrate Hydroquinone 1 mM): 80%
laccase activity ([3]; expressed by recombinant P. pastoris, after sterile filtration, ABTS, 25° C., pH 4.7): 17.5 U/mL
temperature at which activity is highest ([3]; pH 4.7): 40-50 °C
temperature optimum (predicted, highest relative activity) ([3]; pH 4.7, ABTS, factorial model 25-55° C.): 55 °C
pH optimum (highest relative activity) ([3]; substrate ABTS): 4.7
